Our source for the Kd values is patent US20220112276A1 (Janssen / Centocor, published 2022).

Sequences and labels used below:
T1: mouse pIgR extracellular domain (ECD) (mouse, UniProt O70570 19-645)
T1 construct: Bought from R&D Systems (Cat 2800-PG-050); also called mpIgR ECD
T1 sequence: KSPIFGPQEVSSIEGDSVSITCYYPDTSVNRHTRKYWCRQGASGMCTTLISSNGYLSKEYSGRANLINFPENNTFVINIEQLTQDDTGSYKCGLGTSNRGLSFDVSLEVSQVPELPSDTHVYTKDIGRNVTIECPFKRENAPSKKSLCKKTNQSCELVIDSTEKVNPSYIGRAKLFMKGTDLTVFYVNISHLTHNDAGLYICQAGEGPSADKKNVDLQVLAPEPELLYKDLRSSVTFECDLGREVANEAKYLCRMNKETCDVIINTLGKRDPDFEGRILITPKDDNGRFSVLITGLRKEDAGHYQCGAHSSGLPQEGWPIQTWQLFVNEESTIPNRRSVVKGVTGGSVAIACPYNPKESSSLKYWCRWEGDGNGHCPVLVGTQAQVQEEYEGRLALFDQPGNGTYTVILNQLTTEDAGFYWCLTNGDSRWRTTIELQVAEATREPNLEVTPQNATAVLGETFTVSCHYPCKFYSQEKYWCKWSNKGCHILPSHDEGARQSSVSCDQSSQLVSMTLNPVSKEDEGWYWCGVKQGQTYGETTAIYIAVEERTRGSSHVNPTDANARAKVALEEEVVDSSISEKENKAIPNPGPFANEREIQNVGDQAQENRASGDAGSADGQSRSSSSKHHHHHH

T2: rat pIgR extracellular domain (rat, UniProt P15083 19-643)
T2 construct: extracellular domain
T2 sequence (looked up): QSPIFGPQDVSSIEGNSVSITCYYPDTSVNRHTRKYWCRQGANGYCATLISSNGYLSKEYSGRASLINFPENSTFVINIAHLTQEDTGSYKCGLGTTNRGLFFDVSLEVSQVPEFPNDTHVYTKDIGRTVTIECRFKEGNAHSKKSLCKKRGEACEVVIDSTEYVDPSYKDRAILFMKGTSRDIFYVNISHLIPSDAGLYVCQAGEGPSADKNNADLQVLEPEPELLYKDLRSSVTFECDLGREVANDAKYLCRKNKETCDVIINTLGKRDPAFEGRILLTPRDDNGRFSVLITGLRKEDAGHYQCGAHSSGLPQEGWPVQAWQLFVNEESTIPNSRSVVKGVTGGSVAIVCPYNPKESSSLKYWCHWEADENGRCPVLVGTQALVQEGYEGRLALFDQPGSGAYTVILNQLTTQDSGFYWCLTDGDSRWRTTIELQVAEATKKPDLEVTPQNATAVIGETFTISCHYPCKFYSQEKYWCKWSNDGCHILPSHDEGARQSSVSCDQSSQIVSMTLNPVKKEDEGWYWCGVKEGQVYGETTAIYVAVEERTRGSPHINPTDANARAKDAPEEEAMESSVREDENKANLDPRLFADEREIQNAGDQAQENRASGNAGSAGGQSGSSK

B1: 01F04R3LS VHH Mono-Fc (Fc fusion)
chain: EVQLVESGGGLVQAGGSLRLSCAASGRTFSRYAMGWFRQAPGKEREFVAAIAWSGGAIYYADFVKGQFTISRDNAKNTVDLEMNRLKPEDTAVYYCGSTRDPRVGDKKFYDYWGQGTQVTVSSSPAPELLGGPSVFLFPPKPKDTLMISRTPEVTCVVVDVSHEDPEVKFNWYVDGVEVHNAKTKPREEQYNSTYRVVSVLTVLHQDWLNGKEYKCKVSNKALPAPIEKTISKAKGQPREPQVYTKPPSREEMTKNQVSLSCLVKGFYPSDIAVEWESNGQPENNYKTTVPVLDSDGSFRLASYLTVDKSRWQQGNVFSCSVMHEALHNHYTQKSLSLSPGK
B2: 01C02R3 VHH Mono-Fc (Fc fusion)
chain: QVQLVESGGGLVQAGGSLRLSCAASGLSFSSYTMGWFRQVPGKERELISAIHWSGGPTFYSNSVKGRFTISRDNAKDTVYLQMNSLKPEDTAVYYCTAEPVGSMISPDWTYWGQGTLVTVSSSPAPELLGGPSVFLFPPKPKDTLMISRTPEVTCVVVDVSHEDPEVKFNWYVDGVEVHNAKTKPREEQYNSTYRVVSVLTVLHQDWLNGKEYKCKVSNKALPAPIEKTISKAKGQPREPQVYTKPPSREEMTKNQVSLSCLVKGFYPSDIAVEWESNGQPENNYKTTVPVLDSDGSFRLASYLTVDKSRWQQGNVFSCSVMHEALHNHYTQKSLSLSPGK
B3: 01G07R3 VHH Mono-Fc (Fc fusion)
chain: QVQLVESGGGLVQAGDSLRLSCAASGRTLSFDTYAMGWFRQAPGKEREFVASIDWSGGTTYYADSVKGRFTVTRDNAKNTVTLRMNSLKPADTAVYYCAAAQYYRSGTSFPANYWGQGTLVTVSSSPAPELLGGPSVFLFPPKPKDTLMISRTPEVTCVVVDVSHEDPEVKFNWYVDGVEVHNAKTKPREEQYNSTYRVVSVLTVLHQDWLNGKEYKCKVSNKALPAPIEKTISKAKGQPREPQVYTKPPSREEMTKNQVSLSCLVKGFYPSDIAVEWESNGQPENNYKTTVPVLDSDGSFRLASYLTVDKSRWQQGNVFSCSVMHEALHNHYTQKSLSLSPGK
B4: 01H02R3LS VHH Mono-Fc (Fc fusion)
chain: QVQLVESGGGLVQPGGSLRLSCAASGSIFSASVMGWYRQGPGKQREFVARISPGGVTHYADSVKGRFTISKDNAKNTVTLQMNSLKPEDTAVYYCNADRFGFEVYWGQGTLVTVSSSPAPELLGGPSVFLFPPKPKDTLMISRTPEVTCVVVDVSHEDPEVKFNWYVDGVEVHNAKTKPREEQYNSTYRVVSVLTVLHQDWLNGKEYKCKVSNKALPAPIEKTISKAKGQPREPQVYTKPPSREEMTKNQVSLSCLVKGFYPSDIAVEWESNGQPENNYKTTVPVLDSDGSFRLASYLTVDKSRWQQGNVFSCSVMHEALHNHYTQKSLSLSPGK
B5: 03D12R3 VHH Mono-Fc (Fc fusion)
chain: QVQLVESGGGLVQAGGSLRLSCAASGRTFSSYAMGWFRQAPGKEREFAAVITWNGGSTHYADSVKGRFTISRDNAKNTVYLQMNSLKPEDTAVYYCAADPMNSPYWGQGTQVTVSSSPAPELLGGPSVFLFPPKPKDTLMISRTPEVTCVVVDVSHEDPEVKFNWYVDGVEVHNAKTKPREEQYNSTYRVVSVLTVLHQDWLNGKEYKCKVSNKALPAPIEKTISKAKGQPREPQVYTKPPSREEMTKNQVSLSCLVKGFYPSDIAVEWESNGQPENNYKTTVPVLDSDGSFRLASYLTVDKSRWQQGNVFSCSVMHEALHNHYTQKSLSLSPGK
B6: 03G07R3 VHH Mono-Fc (Fc fusion)
chain: EVQLVESGGGLVQAGDSLRLSCAASGRTLSFDTYAMAWFRQAPGKEREFVASIDYNGGSTDYADSVKGRFTVTRDNAKNTVTLRMNSLKPDDTAVYYCASARYYRSGTSFPVNYWGQGTQVTVSSSPAPELLGGPSVFLFPPKPKDTLMISRTPEVTCVVVDVSHEDPEVKFNWYVDGVEVHNAKTKPREEQYNSTYRVVSVLTVLHQDWLNGKEYKCKVSNKALPAPIEKTISKAKGQPREPQVYTKPPSREEMTKNQVSLSCLVKGFYPSDIAVEWESNGQPENNYKTTVPVLDSDGSFRLASYLTVDKSRWQQGNVFSCSVMHEALHNHYTQKSLSLSPGK
B7: 01E02R3LS VHH Mono-Fc (Fc fusion)
chain: EVQLVESGGGLVETGGSLRLSCAASGRTESTYTMAWFRQAPGKERERVATISFSGSTTTYLASVQGRFTISRDGAKNTIFLQMNGLKPEDTAVYYCALDTRRRVGSSPRFYDYWGQGTLVTVSSSPAPELLGGPSVFLFPPKPKDTLMISRTPEVTCVVVDVSHEDPEVKFNWYVDGVEVHNAKTKPREEQYNSTYRVVSVLTVLHQDWLNGKEYKCKVSNKALPAPIEKTISKAKGQPREPQVYTKPPSREEMTKNQVSLSCLVKGFYPSDIAVEWESNGQPENNYKTTVPVLDSDGSFRLASYLTVDKSRWQQGNVFSCSVMHEALHNHYTQKSLSLSPGK
B8: 01C01R2LS VHH Mono-Fc (Fc fusion)
chain: QVQLVESGGGLQQAGGSLRLSCAASGRTVTVMTVGWFRQAPGKEREFVAAITMYGERTYYADSVKGRFTISRDNAKNTVDLQMNSLKPEDAAVYYCAARTYVSGIYDRFDDYNYWGQGTQVTVSSSPAPELLGGPSVFLFPPKPKDTLMISRTPEVTCVVVDVSHEDPEVKFNWYVDGVEVHNAKTKPREEQYNSTYRVVSVLTVLHQDWLNGKEYKCKVSNKALPAPIEKTISKAKGQPREPQVYTKPPSREEMTKNQVSLSCLVKGFYPSDIAVEWESNGQPENNYKTTVPVLDSDGSFRLASYLTVDKSRWQQGNVFSCSVMHEALHNHYTQKSLSLSPGK
B9: 01E10R2 VHH Mono-Fc (Fc fusion)
chain: EVQLVESGGGLVQAGGSLRLSCAASGRTLSVDRMGWFRQVPGKEREFIAARTWSGSSTYIYYADSVKGRFAISRDRAKNTIDLQMNSLKLEDTGAYYCAADVRGGSYDVRRDEGYAYWGQGTLVTVSSSPAPELLGGPSVFLFPPKPKDTLMISRTPEVTCVVVDVSHEDPEVKFNWYVDGVEVHNAKTKPREEQYNSTYRVVSVLTVLHQDWLNGKEYKCKVSNKALPAPIEKTISKAKGQPREPQVYTKPPSREEMTKNQVSLSCLVKGFYPSDIAVEWESNGQPENNYKTTVPVLDSDGSFRLASYLTVDKSRWQQGNVFSCSVMHEALHNHYTQKSLSLSPGK
B10: 01H04R3 VHH Mono-Fc (Fc fusion)
chain: EVQLVESGGGLVQPGGSLRLSCAASGRTFSSLTMAWFRRAPGKEREFVAAQKWAGATTYTYYGDSVKGRFTISRDNAKDTVYLQMNSLKPVDTAIYYCAADTSSIVGDPRSPNRYDYWGQGTQVTVSSSPAPELLGGPSVFLFPPKPKDTLMISRTPEVTCVVVDVSHEDPEVKFNWYVDGVEVHNAKTKPREEQYNSTYRVVSVLTVLHQDWLNGKEYKCKVSNKALPAPIEKTISKAKGQPREPQVYTKPPSREEMTKNQVSLSCLVKGFYPSDIAVEWESNGQPENNYKTTVPVLDSDGSFRLASYLTVDKSRWQQGNVFSCSVMHEALHNHYTQKSLSLSPGK
B11: 01G02R2LS VHH Mono-Fc (Fc fusion)
chain: QVQLVESGGGLVQAGDSLALSCAGSGDTFSNYAMGWFRQAPGKEREFVADISWYGANIGYADSVKGRFTISRDNAKNMVTLRMNSLKPEDTAVYYCAADRNHWPVKGDYWGQGTQVTVSSSPAPELLGGPSVFLFPPKPKDTLMISRTPEVTCVVVDVSHEDPEVKFNWYVDGVEVHNAKTKPREEQYNSTYRVVSVLTVLHQDWLNGKEYKCKVSNKALPAPIEKTISKAKGQPREPQVYTKPPSREEMTKNQVSLSCLVKGFYPSDIAVEWESNGQPENNYKTTVPVLDSDGSFRLASYLTVDKSRWQQGNVFSCSVMHEALHNHYTQKSLSLSPGK

T3 sequence (A0A2K5WMU9 entry or part of it): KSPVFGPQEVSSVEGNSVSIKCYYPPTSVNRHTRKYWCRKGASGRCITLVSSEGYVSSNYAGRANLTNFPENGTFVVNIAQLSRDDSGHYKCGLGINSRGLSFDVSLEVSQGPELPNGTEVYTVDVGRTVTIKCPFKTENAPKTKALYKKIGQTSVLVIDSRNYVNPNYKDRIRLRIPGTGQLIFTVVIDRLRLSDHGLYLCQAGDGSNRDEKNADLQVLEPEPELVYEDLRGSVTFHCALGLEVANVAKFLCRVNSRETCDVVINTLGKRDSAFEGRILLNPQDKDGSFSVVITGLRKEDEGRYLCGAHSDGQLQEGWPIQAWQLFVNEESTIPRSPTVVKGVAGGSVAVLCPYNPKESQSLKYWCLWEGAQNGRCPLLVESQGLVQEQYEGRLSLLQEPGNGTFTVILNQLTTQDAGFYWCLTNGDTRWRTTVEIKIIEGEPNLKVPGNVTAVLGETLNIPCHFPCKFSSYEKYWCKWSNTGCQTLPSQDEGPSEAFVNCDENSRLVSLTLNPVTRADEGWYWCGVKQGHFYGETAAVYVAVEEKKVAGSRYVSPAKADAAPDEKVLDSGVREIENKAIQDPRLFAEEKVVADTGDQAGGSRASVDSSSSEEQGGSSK

The first assay has as its target T3, cynomolgus monkey pIgR extracellular domain (cynomolgus monkey, UniProt A0A2K5WMU9 19-638).
T3 construct: extracellular domain
The experiment in a line: SPR, VHH captured by anti-Fc, ECD analyte. In a few lines:
(§1)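 Single-cycle kinetics: ECD analyte from 30 nM, 3-fold series, low to high, with 30 min off-rate monitoring, over VHH captured at 0.5 ug/ml (~200-300 RU). HBSP plus 100 ug/ml BSA at 30 μL/min. Reference cell and buffer blank subtracted; global 1:1 Langmuir fit gave kon, koff, KD.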
Background: Surface plasmon resonance follows binding to a sensor surface in real time, without labels.
In the case of B1, the Kd (commonly the equilibrium constant for the complex coming apart) came out at 236 nM.

B2 gave a Kd of 8.43 nM.

In turn, B3 returned an equilibrium dissociation constant (Kd) of 40.8 nM.

B4: binding was characterised by a dissociation constant (Kd) of 20.6 nM.

The molecule B5 returned a Kd of 0.905 nM.

B6 registered a Kd of 361 nM.

B7 showed a dissociation constant (Kd) of 0.018 nM.

For the next assay, the target named is T4, human pIgR extracellular domain (ECD) (human, UniProt P01833 19-638).
T4 construct: Bought from R&D Systems (Cat 2717-PG-050); also called hpIgR ECD
T4 sequence (P01833 other isoform, or with tags, fused parts or gaps): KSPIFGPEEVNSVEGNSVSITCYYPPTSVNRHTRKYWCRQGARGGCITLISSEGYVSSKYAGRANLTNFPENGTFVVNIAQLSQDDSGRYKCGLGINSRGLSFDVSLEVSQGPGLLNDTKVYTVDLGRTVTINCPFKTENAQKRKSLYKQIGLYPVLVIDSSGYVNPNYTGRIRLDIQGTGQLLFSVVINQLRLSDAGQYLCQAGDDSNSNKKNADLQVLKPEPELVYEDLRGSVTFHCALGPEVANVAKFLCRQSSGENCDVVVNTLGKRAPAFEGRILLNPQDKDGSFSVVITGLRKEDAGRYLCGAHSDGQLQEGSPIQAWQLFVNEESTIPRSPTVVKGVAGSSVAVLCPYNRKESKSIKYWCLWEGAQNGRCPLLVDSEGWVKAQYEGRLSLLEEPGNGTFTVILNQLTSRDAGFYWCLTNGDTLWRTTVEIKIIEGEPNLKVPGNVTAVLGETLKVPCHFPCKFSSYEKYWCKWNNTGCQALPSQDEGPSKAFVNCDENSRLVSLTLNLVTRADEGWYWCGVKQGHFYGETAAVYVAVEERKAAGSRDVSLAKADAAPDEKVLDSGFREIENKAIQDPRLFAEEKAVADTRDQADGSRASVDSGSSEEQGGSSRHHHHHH
The experiment in a line: SPR, VHH captured by anti-Fc, ECD analyte. A digest of the protocol:
as §1
B1 yielded a Kd of 23.8 nM.

For B2, the Kd came out at 1.23 nM.

Turning to B3, the Kd came to 1.18 nM.

The molecule B4 registered a Kd of 3.24 nM.

The molecule B5 returned a dissociation constant Kd of 0.606 nM.

B6 displayed a Kd of 2.63 nM.

On to B7, for which the affinity, expressed as Kd, was 0.6 nM.

The next assay addresses T1, mouse pIgR extracellular domain (ECD). Briefly: SPR, VHH captured by anti-Fc, ECD analyte. In a few lines:
as §1
Take B8: the Kd is 11.3 nM.

B9 came in with a dissociation constant (Kd) of 61.8 nM.

B10 registered a Kd of 101 nM.

With B11, the Kd came out at 23.3 nM.

For B6, the affinity, expressed as Kd, was 5.58 nM.

In the next assay the target is T2, rat pIgR extracellular domain. Briefly: SPR, VHH captured by anti-Fc, ECD analyte. A digest of the protocol: as §1
Take B9: the dissociation constant Kd was determined as 96.9 nM.

The molecule B10 returned a Kd of 88.2 nM.
